Measured values reported in patent publication US20240109974A1 (SHANDONG SIMCERE BIOPHARMACEUTICAL, published 2024).

B1: 224-WT (antibody, V domains shown)
VH: EVQLQESGPEIVKPGASVKLSCTASGFNNKDIYMHWVKQRPEQGLEWIGRIDPATGNTKHDPKFQDKATLSSDTSSNTAYLQFSSLTSEDTAVYYCAHSPYGDFGAMDYWGQGTTVTVSS
VL: DIQMTQSPAIMSASLGERVTMTCTASSSVSSNYLHWYQQKPGSSPKLWIYSTSNLPSGVPARFSGSGSGTSYSLTISSMEAEDAATYYCHQYHRSPWTFGGGTKLEIK
notes: Human-murine chimeric wild-type molecule; also called human-murine chimeric antibody WT of #224
B2: 001-WT (antibody, V domains shown)
VH: EVQLQESGGGLVQPGGSLNLSCAASGFAFSTYDLSWVRQTPEKRLEWVAYINNGGISTYYSDTVKGRFTISRDNAKNTLYLQMSSLKSEDTAMYYCVRGPFYGSANYFDYWGQGTTVTVSS
VL: EIVMTQSPASLSLSVGETVTITCRTSESIYSNLPWYQQKQGKSPQLLVYDATKLAEGVPSRFSGSESGTQYSLKINSLQSEDFGTYYCQHFWVTPWTFGGGTKLEIK
notes: Human-murine chimeric wild-type molecule; also called human-murine chimeric antibody WT of #001
B3: 219-WT (antibody, V domains shown)
VH: EVQLQESGAELVRPGASVKLSCKASGYSFTNYWMNWVKQRPGQGLEWIGMIHPSDTETRLNQNFKDKATLTVDKSSSTSYMQLSSPTSEDSAVYYCARGEGLGAARSVSMDYWGQGTTVTVSS
VL: DILMTQSPSSLSASLGDRVTISCRASQDISNYLNWYQQKPDGTVKVLIYYTAILHSGVPSRFSGSGSGTDYSLTISNLEQEDIATYFCQQGNTLPWTFGGGTKLEIK
notes: Human-murine chimeric wild-type molecule
B4: 219-Hu3 (antibody, V domains shown)
VH: QVQLVQSGAEVKKPGSSVKVSCKASGYSFTNYWMNWVRQAPGQGLEWMGMIHPSDTETRLNQNFKDRVTITADKSTSTAYMELSSLRSEDTAVYYCARGEGLGAARSVSMDYWGQGTLVTVSS
VL: DIQMTQSPSSLSASVGDRVTITCRASQDISNYLNWYQQKPDGTVKLLIYYTAILHSGVPSRFSGSGSGTDYSLTISSLQPEDFATYFCQQGNTLPWTFGQGTKVEIK
notes: also called VH5 + VL5
B5: 219-Hu5 (antibody, V domains shown)
VH: QVQLVQSGAEVKKPGSSVKVSCKASGYSFTNYWMNWVRQAPGQGLEWMGMIHPSDTETRLNQNFKDRVTITVDKSTSTAYMELSSLRSEDTAVYYCARGEGLGAARSVSMDYWGQGTLVTVSS
VL: DIQMTQSPSSLSASVGDRVTITCRASQDISNYLNWYQQKPDGTVKLLIYYTAILHSGVPSRFSGSGSGTDYSLTISSLQPEDFATYFCQQGNTLPWTFGQGTKVEIK
notes: also called VH7 + VL5
B6: 219-Hu2 (antibody, V domains shown)
VH: QVQLVQSGAEVKKPGSSVKVSCKASGYSFTNYWMNWVRQAPGQGLEWMGMIHPSDTETRLNQNFKDKATITADKSTSTAYMELSSLRSEDTAVYYCARGEGLGAARSVSMDYWGQGTLVTVSS
VL: DIQMTQSPSSLSASVGDRVTITCRASQDISNYLNWYQQKPDGTVKLLIYYTAILHSGVPSRFSGSGSGTDYSLTISSLQPEDFATYFCQQGNTLPWTFGQGTKVEIK
notes: also called VH4 + VL5
B7: 219-Hu1 (antibody, V domains shown)
VH: QVQLVQSGAEVKKPGASVKVSCKASGYSFTNYWMNWVRQAPGQRLEWMGMIHPSDTETRLNQNFKDRVTITRDTSASTAYMELSSLRSEDTAVYYCARGEGLGAARSVSMDYWGQGTLVTVSS
VL: DIQMTQSPSSLSASVGDRVTITCRASQDISNYLNWYQQKPDGTVKLLIYYTAILHSGVPSRFSGSGSGTDYSLTISSLQPEDFATYFCQQGNTLPWTFGQGTKVEIK
notes: also called VH3 + VL5
B8: 219-Hu4 (antibody, V domains shown)
VH: QVQLVQSGAEVKKPGSSVKVSCKASGYSFTNYWMNWVKQAPGQGLEWIGMIHPSDTETRLNQNFKDKATLTVDKSTSTAYMELSSLRSEDTAVYYCARGEGLGAARSVSMDYWGQGTLVTVSS
VL: DIQMTQSPSSLSASVGDRVTITCRASQDISNYLNWYQQKPDGTVKLLIYYTAILHSGVPSRFSGSGSGTDYSLTISSLQPEDFATYFCQQGNTLPWTFGQGTKVEIK
notes: also called VH6 + VL5

molecular target: T1, human TNFR2 on the surface of CHO-TNFR2 cells (human, UniProt P20333 23-461); assay: flow cytometry on CHO-TNFR2 cells; AUC, reference itself
T1 construct: whole, on cells
T1 sequence (looked up): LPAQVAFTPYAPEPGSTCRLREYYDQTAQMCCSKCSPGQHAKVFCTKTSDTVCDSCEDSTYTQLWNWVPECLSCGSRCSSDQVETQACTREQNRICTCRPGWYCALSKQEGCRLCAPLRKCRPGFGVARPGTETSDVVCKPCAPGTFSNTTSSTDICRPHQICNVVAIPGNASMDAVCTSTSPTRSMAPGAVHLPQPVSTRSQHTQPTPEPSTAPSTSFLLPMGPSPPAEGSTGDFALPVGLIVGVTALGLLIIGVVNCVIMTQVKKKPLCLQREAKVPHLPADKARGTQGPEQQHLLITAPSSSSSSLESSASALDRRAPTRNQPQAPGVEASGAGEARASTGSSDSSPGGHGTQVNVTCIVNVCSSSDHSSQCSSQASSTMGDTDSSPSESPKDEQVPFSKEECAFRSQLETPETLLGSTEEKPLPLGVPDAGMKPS
Experimental: The transfected full-length plasmid of human TNFR2 was purchased from Sino Biological (Cat #HG10417-UT, NCBI Ref Seq: NM_001066.2). The experiment was conducted at a cell density within 80%. The cell medium was discarded; the cells were rinsed with PBS, and digested with 1 ml trypsin for 2 minutes; the digestion was stopped with a Ham's F12 complete medium containing 10% FBS, and then a cell suspension was made. The cell suspension was counted, and then an appropriate amount of cell suspension was centrifuged at 350×g; the supernatant was discarded; a corresponding volume of blocking solution (10% FBS+PBS) at a density of 1×10⁷ cells/ml was added to resuspend the cells, and the mixture was incubated at 4° C. for 30 minutes. After the incubation, the mixture was centrifuged at 350×g to remove the supernatant, and the cells were resuspended in a staining buffer (2% FBS+PBS) to a density of 2×10⁶ cells/ml, and spread onto a 96-well plate, with 50 μl of cell suspension added to each well for later use. The antibody was diluted with PBS for 10-fold gradient dilution from the highest concentration of 20 μg/m (twice the concentration); the diluted antibody was added to the well containing 50 μl of cell suspension, and placed on a microplate shaker for shaking at 500 rpm for 1 minute, so that the antibody was fully mixed with the cells; the mixture was incubated at 4° C. for 1 h. After the incubation, the cells were washed twice with the staining buffer, with 100 μl per well, and centrifuged at 350-g for 5 minutes, and the supernatant was discarded. […] After the staining, similarly, the cells were washed twice with the staining buffer; finally, the cells were resuspended in 200 μl of staining buffer; signals were detected by a flow cytometer (Thermo Attune NxT). […] The binding curve of an antibody was drawn with antibody concentration as the abscissa and corresponding mean fluorescence intensity (MFI) fold as the ordinate, and fitted with four parameters (GraphPad Prism9) to calculate the EC50 value.

| Binder | % Relative activity (Test antibody/WT antibody) [%] |
| --- | --- |
| B1 | 100 |
| B2 | 100 |
| B3 | 100 |

molecular target: T1, human TNFR2 on the surface of CHO-TNFR2 …; assay: competition flow cytometry on CHO-TNFR2 cells, competitor TNFα-biotin; AUC against 219-WT
Experimental: CHO stable cells highly expressing human TNFR2 were used for the experiment (the same as CHO-TNFR2 in Example 4). The CHO-TNFR2 cells were digested, washed twice with DPBS, then stained with Live/Dead (L/D) (20 minutes at room temperature), and plated at a density of 1×10⁵ cells/50 μl/well. A test anti-TNFR2 antibody was diluted to 6 μg/ml with a staining buffer as the starting concentration: the antibody was subjected to 3.33-fold gradient dilution, with a total of 7 concentration points. The diluted antibody was added to the plated cells at 50 μl/well, and the mixture was mixed well by gentle pipetting, and incubated at 4° C. for 30 minutes. Then the diluted 100 ng/ml of human TNFα-biotin was added at 100 μl/well, and the mixture was mixed well by gentle pipetting, and then incubated at 4° C. for 30 minutes. The mixture was washed twice with a staining buffer, and then 0.12 μg/ml PE-streptavidin (BioLegend, Cat #405204) was added at 100 μl/well; the resulting mixture was incubated at 4° C. for 30 minutes. The mixture was washed twice with a staining buffer, and then 150 μl of staining buffer was added to resuspend the cells; signals were detected by a flow cytometer (Thermo Attune NxT). The inhibitory curve of an antibody was drawn with antibody concentration as the abscissa and corresponding MFI value as the ordinate, and fitted with four parameters (GraphPad Prism9) to calculate the IC50 value. The smaller the IC50 value, the stronger the ability of an antibody to inhibit the binding of human TNFα to human TNFR2. The blocking effect of a humanized antibody was normalized to its corresponding human-murine chimeric WT antibody. The higher the percentage value, the better the inhibitory effect of the humanized antibody.

| Binder | % Relative activity (WT antibody/test antibody) [%] |
| --- | --- |
| B4 | 98.5 |
| B5 | 109 |
| B6 | 102 |
| B7 | 102 |
| B8 | 108 |
